Test [1] deals with T1, talin1 R7-R8 (murine talin1 residues 1357–1653) (mouse, UniProt P26039 1357-1653).
T1 construct: talin1, mouse, residues 1357-1653 (R7-R8); 15N-labelled for NMR, unlabelled for fluorescence polarisation; Vector pet151-TOPO; also called talin R7-R8; wild type R7-R8
Nature of the test: fluorescence polarisation; fixed 0.5 μM BODIPY-labelled KANK peptide, increasing talin R7-R8, PBS, 100 μl, room temperature, triplicate; one site total and non-specific binding model. The following applies: both partners purified. Background: In fluorescence polarisation assays a small probe gives low polarisation when free and higher when bound to something large.

Another test addresses T2, talin1 R7-R8 S1641E (mouse, UniProt P26039 1357-1653, S1641E).
T2 construct: talin1, mouse, R7-R8 (limits as the wild type: 1357-1653) with S1641E; also called S1641E mutant; source: gene synthesized by GeneArt
The test is described as above. The settings on record: both partners purified.

Data on 2 molecules can be found in PMC4995097, “Talin-KANK1 interaction controls the recruitment of cortical microtubule stabilizing complexes to focal adhesions” (eLife, 2016).

T1 sequence (P26039 1357-1653): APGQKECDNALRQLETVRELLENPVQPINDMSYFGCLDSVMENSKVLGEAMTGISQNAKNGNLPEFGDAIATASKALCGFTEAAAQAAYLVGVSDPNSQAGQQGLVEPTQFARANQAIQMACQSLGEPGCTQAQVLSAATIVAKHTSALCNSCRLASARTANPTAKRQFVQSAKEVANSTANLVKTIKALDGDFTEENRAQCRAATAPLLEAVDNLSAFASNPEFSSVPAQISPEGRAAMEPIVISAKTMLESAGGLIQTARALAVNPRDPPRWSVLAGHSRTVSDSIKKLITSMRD
T2 sequence (P26039 1357-1653 S1641E): as the sequence (P26039 1357-1653) above, with S285E counted along it

B1: BODIPY-labeled KANK1(30–60)C peptide (peptide)
peptide: PYFVETPYGFQLDLDFVKYVDDIQKGNTIKKC
modifications: BODIPY TMR dye coupled via the carboxy terminal cysteine
notes: KANK1, human, residues 30-60; added C-terminal cysteine; also called KANK1(30–60) peptide; source: synthetic peptide (Biomatik), dye-coupled, gel filtered
For the molecule B1, the binding result (in test [1]; in the test with talin1 R7-R8 S1641E) was “binds” throughout.

B2: BODIPY-labeled KANK2(31–61)C peptide (peptide)
peptide: PYSVETPYGYRLDLDFLKYVDDIEKGHTLRRC
modifications: BODIPY TMR dye coupled via the carboxy terminal cysteine
notes: KANK2, residues 31-61; added C-terminal cysteine; source: synthetic peptide (Biomatik), dye-coupled, gel filtered
In the case of B2, the binding result in test [1] is on record as “binds”.
